{
  "source": "patent US20150086564A1",
  "about": "(CENTRE NATIONAL DE LA RECHERCHE SCIENTIFIQUE CNRS, published 2015)",
  "binders": {"B1": {"name": "monoclonal anti-sPLA2-IIA antibody #6G2 (antibody, IgG1, V domains shown)", "VH": "QVQLQQSGAELVKPGASVKLSCKASGYTFTSYDINWVRQRPEQGLEWIGWIFPGDGSTEYNEKFKGKATLTTDKSSSTAYMQLSRLTSEDSAVYFCARWGITAFPLFDYWGQGTALTVSS", "VL": "DIVLTQSPASLAVSLGQRATISCRASESVDYDGDSYMNWYQQKPGQPPKLLIYAASNLESGIPARFSGSGSGTDFTLNIHPVEEEDAATYYCLQSNEAPWTFGGGTKLEIKR", "notes": "also called 6G2 antibody"}, "B2": {"name": "monoclonal anti-sPLA2-IIA antibody #9C8 (antibody, IgG1, V domains shown)", "VH": "DVELVESGGGLVKLGGSLKLSCAASGFTFSSYYMSWVRQTPEKRLELVAAINSNGGSTYYPDTVKGRFTISRDNAKNTLYLQMSSLKSEDTALYYCARQGYGNFFDYWGQGTTLTVSS", "VL": "DVVMTQTPLSLPVSLGDQASISCRSSQSIVHSNGNTYLYWYLQKPGQSPKLLIYRVSNRFSGVPDRFSGSGSGTDFTLKISRVEAEDMGVYYCFQGTHVPRTFGGGTNLEIKR", "notes": "also called 9C8 antibody"}, "B3": {"name": "biotinylated monoclonal antibody #6G2 (antibody, mouse IgG1, V domains shown)", "VH": "B1 VH", "VL": "B1 VL", "modifications": "biotinylated (Pierce kit ref. 21435), sites not stated", "notes": "also called #6G2-Biot; 6G2-biot"}, "B4": {"name": "biotinylated monoclonal antibody #9C8 (antibody, mouse IgG1, V domains shown)", "VH": "B2 VH", "VL": "B2 VL", "modifications": "biotinylated (Pierce kit ref. 21435), sites not stated", "notes": "also called biotinylated #9C8"}},
  "key": {"[1]": {"target": "T1, recombinant human sPLA2-IIA N1A mutant (human, UniProt P14555 22-144)", "T1 construct": "also called N1A sPLA2-IIA mutant", "T1 sequence": "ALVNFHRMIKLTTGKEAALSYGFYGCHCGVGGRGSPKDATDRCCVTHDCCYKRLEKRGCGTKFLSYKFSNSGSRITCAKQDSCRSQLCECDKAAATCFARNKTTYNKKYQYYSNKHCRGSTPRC", "assay": "indirect ELISA on coated sPLA2-IIA N1A, anti-mouse IgG-HRP detection, one-site saturation fit"}, "[2]": {"target": "T1, recombinant human sPLA2-IIA N1A mutant", "assay": "indirect ELISA on coated sPLA2-IIA N1A (50 ng/well), one-site saturation fit, relative Kd"}, "[3]": {"target": "T1, recombinant human sPLA2-IIA N1A mutant", "assay": "indirect ELISA on coated sPLA2-IIA N1A, streptavidin-HRP detection, one-site saturation fit"}},
  "data": [
    {"binder": "B1", "values": [
      {"measurement": "Kd", "setting": "[1]", "result": 0.0817, "unit": "nM"},
      {"measurement": "Kd", "setting": "[2]", "result": 0.124, "unit": "nM"}
    ]},
    {"binder": "B2", "values": [
      {"measurement": "Kd", "setting": "[1]", "result": 1.17, "unit": "nM"},
      {"measurement": "Kd", "setting": "[2]", "result": 1.71, "unit": "nM"}
    ]},
    {"binder": "B3", "values": [
      {"measurement": "Kd", "setting": "[3]", "result": 0.22, "unit": "nM"}
    ]},
    {"binder": "B4", "values": [
      {"measurement": "Kd", "setting": "[3]", "result": 3.34, "unit": "nM"}
    ]}
  ]
}
